The labels stand for the following.
B1: head-to-tail cyclic … peptide (peptide)
peptide: LYDHPQNGGQ
modifications: not checked
B2: linear NH2-…-COOH peptide (peptide)
peptide: H-QNDHPQNGGQ-OH
B3: head-to-tail cyclic NQpWQ peptide (peptide)
peptide: NQPWQ
modifications: not checked
B4: head-to-tail cyclic … peptide (peptide)
peptide: QNDHPQNGGQ
modifications: not checked
B5: linear NH2-…-COOH peptide (peptide)
peptide: H-LYDHPQNGGQ-OH

Here are results for 5 molecules from patent US20180045721A1.

The target of this assay is streptavidin, P22629. Nature of the assay: SPR, BIAcore X100, streptavidin coupled to the chip, peptide in solution.
streptavidin, P22629, sequence (P22629 37-163 limits assumed): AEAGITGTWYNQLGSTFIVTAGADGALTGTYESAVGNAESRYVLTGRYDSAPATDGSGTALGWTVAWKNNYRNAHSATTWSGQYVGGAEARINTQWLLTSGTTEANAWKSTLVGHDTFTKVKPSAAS
In turn, B1 returned a Kd of 9.4 µM.

For the molecule B2, the Kd was determined as 320 µM.

Molecule B3 showed a Kd of 61.3 µM.

As to B4, the Kd came to 10.8 µM.

Regarding B5, the Kd worked out at 100 µM.
